Where no end group is shown, it is not given here.
Legend:
ATF4/FOS heterodimer = target: T1, ATF4/FOS heterodimer (Homo sapiens, UniProt P18848); test: Competition FRET assay; format: binding; settings: 37°C; 10 nM ATF4 (fluorescein) with 200 nM FOS (TAMRA); unlabeled design
T1 construct: made in house
Procedure: (§1) In the competition form of the assay, a FRET pair was made by mixing 10 nM of the donor-labeled peptide with a specified concentration of the acceptor-labeled peptide in 1 mM TCEP-HCl, and 20 μL of this solution was added to the wells after unlabeled design was titrated in 2-fold dilutions over the wells to a final concentration ranging from 0 to 2.5 μM. The amount of acceptor used varied for each curve, taking into account the Kd of the FRET complex in order to obtain a good lower baseline for fitting purposes. Samples were equilibrated for one hour before reading the plates; repeated reading of the plates over several hours gave no change in signal.
(§2) For the competition experiments, the IC50 was determined in MATLAB by fitting the binding data to the equation signal=a+b−a/(1+x/c)^H , where a and b are the lower and upper baselines, c is the IC50 value, x is the inhibitor concentration, and the Hill coefficient H was set to 1. Ki values were calculated as in Fu et al..

XBP1/CREBZF heterodimer = target: T2, XBP1/CREBZF heterodimer (Homo sapiens, UniProt P17861); test: Competition FRET assay; format: binding; settings: 23°C; 10 nM XBP1 (fluorescein) with 50 nM CREBZF (TAMRA); unlabeled design
T2 construct: made in house
Procedure: as §1, §2

[1] = target: ATF5-d1 labeled at the C-terminus; test: FRET or BRET; direct-binding FRET of the designed peptide with itself (row 'homodimer'; dimer to monomers); acceptor-labelled design titrated into donor-labelled design by note 1 of the tables; 4 °C
CREB1 (human) = CREB1 (human) (UniProt P16220); test: FRET or BRET; direct-binding FRET in 384-well plates; rhodamine-labelled design (acceptor) titrated 0 to 1 uM into 10 nM fluorescein-labelled bZIP (donor); 150 mM KCl, 50 mM potassium phosphate pH 7.4, 0.1% Tween-20, 0.1% BSA; 37 °C
Chain of CREB1 (human) (P16220 whole entry): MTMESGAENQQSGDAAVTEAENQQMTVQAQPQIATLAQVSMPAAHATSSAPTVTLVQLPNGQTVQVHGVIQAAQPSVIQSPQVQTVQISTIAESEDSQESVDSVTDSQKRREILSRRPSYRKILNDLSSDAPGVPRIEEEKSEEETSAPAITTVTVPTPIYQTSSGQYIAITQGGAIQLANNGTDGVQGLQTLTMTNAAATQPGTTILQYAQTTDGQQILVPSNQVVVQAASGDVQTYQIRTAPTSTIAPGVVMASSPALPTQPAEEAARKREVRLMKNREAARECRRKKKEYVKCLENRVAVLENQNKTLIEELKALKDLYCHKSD

CREB3L1 (human) = CREB3L1 (human) (UniProt Q96BA8); test: as above
Chain of CREB3L1 (human) (Q96BA8 whole entry): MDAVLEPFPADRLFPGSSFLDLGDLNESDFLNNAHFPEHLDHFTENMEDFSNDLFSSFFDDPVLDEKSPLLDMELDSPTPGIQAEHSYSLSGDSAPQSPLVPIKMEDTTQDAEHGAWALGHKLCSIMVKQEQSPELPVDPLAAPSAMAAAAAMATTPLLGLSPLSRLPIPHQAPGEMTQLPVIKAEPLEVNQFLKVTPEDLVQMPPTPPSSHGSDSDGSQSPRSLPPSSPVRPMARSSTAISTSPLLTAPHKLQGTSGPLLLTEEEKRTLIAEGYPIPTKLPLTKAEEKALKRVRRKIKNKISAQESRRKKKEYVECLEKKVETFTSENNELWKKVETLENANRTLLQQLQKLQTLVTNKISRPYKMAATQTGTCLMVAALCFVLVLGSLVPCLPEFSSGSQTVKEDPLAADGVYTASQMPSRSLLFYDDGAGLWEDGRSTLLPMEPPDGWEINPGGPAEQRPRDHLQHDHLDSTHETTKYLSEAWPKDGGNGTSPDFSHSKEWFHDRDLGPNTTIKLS

## NQIKTLRTRLSKLRKDNLQLEKDIANLERKAKDLRAEKEQLEYEL [ATF4-d1]
ATF4/FOS heterodimer
  IC50: 279 nM

## EREAQLENRVAHLKEKNQELKAQNLHLKEALSEAQNRNQELKNDA [XBP1-d1]
XBP1/CREBZF heterodimer
  IC50: 136 nM

B1: ATF5-d1 labeled at the C-terminus (designed binder)
chain: GESKEYKKGSGSKRIAYLRQRIAELRNENHVLESRIQRMEKEKDALQQDRDHLEYELGC(Rhodamine Red C2‑maleimide)
modifications: not fully specified
[1]
  Kd: 1000 nM
CREB1 (human)
  Kd: 1000 nM
CREB3L1 (human)
  Kd: 1000 nM
